In test [1] the target is soluble fragment of human IgE receptor (FcεRI) α chain (human) (UniProt P12319). The experiment in a line: SPR (BIAcore), purified scFv.
For test [2] the target is unchanged. The experiment in a line: competition ELISA: inhibition of binding of biotin-labeled FcεRI α chain (55 ng/mL) to immobilized human IgE, at scFv >= 100 µg/ml. In general terms: An ELISA detects its analyte on a solid surface through an enzyme-linked reagent.
For test [3] the target is unchanged. The experiment in a line: competition ELISA: inhibition of binding of biotin-labeled FcεRI α chain (55 ng/mL) to immobilized human IgE.

Where only a bound is given, the exact number is not on record here.

The values that follow come from patent US20050170451A1.

By Kd is commonly meant the constant that tells how readily two partners part at equilibrium. The low end stands for higher affinity, the high end for lower affinity.

Sequence of UniProt P12319 (P12319 26-197 limits assumed): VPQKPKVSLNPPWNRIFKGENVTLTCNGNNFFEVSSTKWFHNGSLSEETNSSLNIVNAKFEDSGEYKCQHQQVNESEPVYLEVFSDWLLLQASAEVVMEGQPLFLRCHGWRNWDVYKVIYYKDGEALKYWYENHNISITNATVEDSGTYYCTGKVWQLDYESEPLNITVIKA

B1: αFcR51 scFv (human anti-human FcεRI α chain single-chain Fv clone) (scFv, part only; not given: VH-VL linker and E tag, V domains shown, not shown: another chain or arm of the molecule; small tags and cut ends)
VH: QVQLQEWGGGLVQPGGSLRLSCAASGFTVSSNYMSWVRQAPGKGLEWVSVIYRGGSGDNTYYAGSVKGRFTISRDNSKNTVYLQMNSLRAEDTAVYYCVRSSDVGYGILRGYMDVWGKGTTVTVSS
VL: HVILTQPPSVSVSPGQTARIPCSGQDLTNKYVSWYQLQSGQSPALVIYEDSKRPSGIPERFSGSNSGDTATLTITGTQAADEADFFCQAYDTNGWVFGAGTKLTVL
B1 registered a dissociation constant (Kd) in test [1] of 5.8 nM. This molecule yielded an inhibition rate in test [2] greater than 90%. Besides, the scFv concentration at which inhibition is seen in test [3] was greater than 0.1 µg/mL.
